Source: doi:10.1101/380220 (bioRxiv, 2019)
Where two headings read alike, the source gives them in different places.

B1: GST-Scd1 (760-872) (domain or fragment, UniProt P40995 760-872, looked up)
chain: SSSTSTSLSVRNTTNVKIRLRLHEVSLVLVVAHDITFDELLAKVEHKIKLCGILKQAVPFRVRLKYVDEDGDFITITSDEDVLMAFETCTFELMDPVHNKGMDTVSLHVVVYF
B2: Scd1 (760-872) fragment (domain or fragment, UniProt P40995 760-872, looked up)
chain: B1 chain
B3: GST-Byr2 (65-180) (domain or fragment, UniProt P28829 65-180, looked up)
chain: REFPRPCILRFIACNGQTRAVQSRGDYQKTLAIALKKFSLEDASKFIVCVSQSSRIKLITEEEFKQICFNSSSPERDRLIIVPKEKPCPSFEDLRRSWEIELAQPAALSSQSSLSP

What was measured:
[1] = biological target: T1, GTP-loaded Ras1.G17V (1-172) (fission yeast (Schizosaccharomyces …, UniProt P08647 1-172, G17V)); test: pull-down
T1 sequence (looked up): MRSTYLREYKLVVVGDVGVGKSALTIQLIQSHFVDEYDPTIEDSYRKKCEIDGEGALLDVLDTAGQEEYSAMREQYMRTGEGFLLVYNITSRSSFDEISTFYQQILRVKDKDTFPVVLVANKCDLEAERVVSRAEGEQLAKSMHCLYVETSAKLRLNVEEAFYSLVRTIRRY

[2] = biological target: T1, GTP-loaded Ras1.G17V (1-172); test: pull-down; remark: listed apart in the source

Row | Binder | binding result [1] | binding result [2]
1 | B1 | binds | –
2 | B2 | – | binds
3 | B3 | binds | –
